Source: patent US20180291360
Where two headings read alike, the source gives them in different places.

T1: peptide KPGQPMY
T1 chain: KPGQPMY

T2: peptide WHWLQLKPGQPMY
T2 chain: WHWLQLKPGQPMY

T3: peptide TPAAAR
T3 chain: TPAAAR


Columns and labels:
[1] = tested on: peptide TPAAAR
[2] = target: T1, peptide KPGQPMY
[3] = target: T2, peptide WHWLQLKPGQPMY
[4] = target: T3, peptide TPAAAR

Row | Molecule | hydrolysis of the peptide, LC-MS label free quantification [1] | hydrolysis of the peptide (X-Pro bond), LC-MS label free quantification [2] | hydrolysis of the peptide, LC-MS label free quantification [3] | hydrolysis of the peptide, LC-MS label free quantification [4]
1 | COROLASE LAP (fungal exo-peptidase, AB Enzymes) | show no hydrolysis of TPAAAR within 12 hr |  |  | 
2 | TRI035, PepN 2 (aminopeptidase type 2) from Aspergillus clavatus NRRL 1 (protein) NAPGGPGGHGRKLPVNPKTFPNEIRLKDLLHGSQKLEDFAYAYPERNRVFGGQAHLDTVNYLYRELKKTGYYDVYKQPQVHQWTRADQSLTLGGDSIQASTMTYSPSVNVTAPLSLVSKLGCAEGDYSADVKGKIALVSRGECSFAQKSVLSAKAGAVATIVYNNVDGSLAGTLGGATSELGPYSPIIGITLAAGQDLVARLQAAPTEVSLWIDSKVENRTTYNVIAQTKGGDPNNVVALGGHTDSVENGPGINDDGSGVISNLVVAKALTRYSVKNAVRFCFWTAEEFGLLGSNYYVDNLSPAELAKIRLYLNFDMIASPNYALMIYDGDGSAFNLTGPPGSAQIESLFENYYKSIKQGFVPTAFDGRSDYEGFILKGIPAGGVFTGAESLKTEEQARLFGGQAGVALDANYHAKGDNMTNLNHKAFLINSRATAFAVATYANNLSSIPPRNATVVKRESMKWTKREEPHTHGADTGCFASRVKE |  | to KPGQPMY (FIG. 6) and further down to QPMY (FIG. 7) | TRI031 and TRI035 can hydrolyze the peptide WHWLQLKPGQPMY (FIG. 5) to KPGQPMY (FIG. 6) and further down to QPMY (FIG. 7) | can hydrolyze the peptide TPAAAR over time to less than half the concentration within 2 hr incubation
3 | TRI031, PepN 2 (aminopeptidase type 2) from Neosartorya fischeri NRRL 181 (protein) NGPGWDWKPPVHPKVLPQMIHLWDLMHGAQKLEDFAYAYPERNRVFGGPAHEDTVNYLYRELKKTGYYDVYKQPQVHQWTRADQALTVDGKSYVATTMTYSPSVNVTAPLAVVNNLGCVESDYPADLKGKIALVSRGECPFATKSVLSAKAGAAAALVYNNIEGSMAGTLGGPTSELGPYAPIAGISLADGQALIQMIQAGTVTANLWIDSKVENRTTYNVIAQTKGGDPNNVVALGGHTDSVEAGPGINDDGSGIISNLVVAKALTRFSVKNAVRFCFWTAEEFGLLGSSYYVNSLNATEKAKIRLYLNFDMIASPNYALMIYDGDGSAFNLTGPAGSAQIERLFEDYYKSIRKPFVPTEFNGRSDYEAFILNGIPAGGIFTGAEAIKTEEQAKLFGGQAGVALDANYHAKGDNMTNLNREAFLINSKATAFAVATYANSLDSIPSRNMSTVVKRSQLEQAKKSTPHTHTGGTGCYKDRVEQ |  | to KPGQPMY (FIG. 6) and further down to QPMY (FIG. 7) | TRI031 and TRI035 can hydrolyze the peptide WHWLQLKPGQPMY (FIG. 5) to KPGQPMY (FIG. 6) and further down to QPMY (FIG. 7) | 
4 | TRI032, PepN 2 (aminopeptidase type 2) from Myceliophthora thermophila ATCC 42464 (protein) GGHGGSSGLGCDSQRPLVSSEKLQSLIKKEDLLAGSQELQDIATAHGGHRAFGSSGHNATVDFLYYTLKALDYYNVTKQPFKEIFSSGTGSLTVDGEDIEAETLTYTPSGSATDKPVVVVANVGCDAADYPAEVAGNIALIKRGTCTFSQKSVNAKAAGAVAAIIYNNAEGKLSGTLGQPFLDYAPVLGITLEAGEALLAKLAGGPVTATLQIDALVEERVTYNVIAETKEGDHSNVLVLGGHTDSVPAGPGINDDGSGTIGMLTVAKALTKFRVKNAVRFAFWSAEEYGLLGSYAYIKSINSSAAELSKIRAYLNFDMIASPNYIYGIYDGDGNAFNLTGPAGSDVIERNFENFFKRKHTPSVPTEFSGRSDYAAFIENGIPSGGLFTGAEVLKTEREAELFGGRAGVAYDVNYHQAGDTVDNLALDAFLLNTKAIADSVATYALSFDGLPRVDGKKRRWDAHRARMLKRSAGSHGHAHLHSGPCGGGASI |  |  |  | can hydrolyze the peptide TPAAAR over time to less than half the concentration within 2 hr incubation
5 | TRI063, leucine aminopeptidase 2 from Aspergillus oryzae RIB40 (NCBI Reference Sequence XP_001819545.1) (protein) RALVSPDEFPEDIQLEDLLEGSQQLEDFAYAYPERNRVFGGKAHDDTVNYLYEELKKTGYYDVYKQPQVHLWSNADQTLKVGDEEIEAKTMTYSPSVEVTADVAVVKNLGCSEADYPSDVEGKVALIKRGECPFGDKSVLAAKAKAAASIVYNNVAGSMAGTLGAAQSDKGPYSAIVGISLEDGQKLIKLAEAGSVSVDLWVDSKQENRTTYNVVAQTKGGDPNNVVALGGHTDSVEAGPGINDDGSGIISNLVIAKALTQYSVKNAVRFLFWTAEEFGLLGSNYYVSHLNATELNKIRLYLNFDMIASPNYALMIYDGDGSAFNQSGPAGSAQIEKLFEDYYDSIDLPHIPTQFDGRSDYEAFILNGIPSGGLFTGAEGIMSEENASRWGGQAGVAYDANYHAAGDNMTNLNHEAFLINSKATAFAVATYANDLSSIPKRNTTSSLHRRARTMRPFGKRAPKTHAHVSGSGCWHSQVEA |  |  | we also find that their enzyme cleaves the peptide down to QPMY (FIG. 7) | show no hydrolysis of TPAAAR within 12 hr
